Consider 94 variants from the supplement of paper PMC10567573.

B1: KCNA1 (parent)
chain: LKASMRELGLLIFFLFIGVILFSS
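Note: lentivirally expressed fusions sorted by FACS into six bins by GFP to DsRed ratio, PSI derived from sequencing read proportions per bin multiplied by bin number.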

This series covers variants of B1. The series is described as follows: protein stability index of a GFP-peptide fusion (GPS, HEK-293T) (PSI 1-6); higher = more stable. As to conditions: c terminus: a fixed tail appended.
Take LKASMRELGLLIFFLFIDVILFSS [G18D]: the protein stability index is 1.87.

With LKASMRELGLLIFFLFIMVILFSS [G18M], the protein stability index was 2.2.

In the case of LKASMRELGLLIFFLFINVILFSS [G18N], the protein stability index was 3.02. Then LKASMRELGLLIFFLFIVVILFSS [G18V], with 3.15; and LKASMRELGLLIFFLFIPVILFSS [G18P], with 1.86. Then LKASMRELGLLIFFLFIKVILFSS [G18K], with 2.44. Turning to LKASMRELGLLIFFLFICVILFSS [G18C], the protein stability index worked out at 3.63. Take LKASMRELGLLIFFLFIAVILFSS [G18A]: the protein stability index worked out at 1.77. Take LKASMRELGLLIFFLFILVILFSS [G18L]: the protein stability index was 1.82. Then LKASMRELGLLIFFLFIQVILFSS [G18Q], with 2.75; and LKASMRELGLLIFFLFISVILFSS [G18S], with 3.74; and LKASMRELGLLIFFLFIIVILFSS [G18I], with 4.5.

Regarding LKASMRELGLLIFFLFIYVILFSS [G18Y], the protein stability index was determined as 3.18. Turning to LKASMRELGLLIFFLFITVILFSS [G18T], the protein stability index worked out at 3.2. Consider LKASMRELGLLIFFLFIFVILFSS [G18F], for which the protein stability index turned out to be 3.9. Turning to LKASMRELGLLIFFLFIWVILFSS [G18W], the protein stability index turned out to be 2.21.

On to LKASMRELGLLIFRLFIGVILFSS [F14R], for which the protein stability index worked out at 2.41. Then LKASMRELGLLIFILFIGVILFSS [F14I], with 2.74; and LKASMRELGLLIFDLFIGVILFSS [F14D], with 2.93. Then LKASMRELGLLIFKLFIGVILFSS [F14K], with 2.65; and LKASMRELGLLIFLLFIGVILFSS [F14L], with 2.98.

For the variant LKASMRELGLLIFCLFIGVILFSS [F14C], the protein stability index is 1.95. To LKASMRELGLLIFALFIGVILFSS [F14A] belongs 4.15.

With LKASMRELGLLIFTLFIGVILFSS [F14T], the protein stability index was 2.79. Then LKASMRELGLLIFELFIGVILFSS [F14E], with 2.74; and LKASMRELGLLIFHLFIGVILFSS [F14H], with 3.41; and LKASMRELGLLIFPLFIGVILFSS [F14P], with 4.04. To LKASMRELGLLIFGLFIGVILFSS [F14G] belongs 3.88; to LKASMRELGLLIFVLFIGVILFSS [F14V], 2.82; to LKASMRELGLLIFMLFIGVILFSS [F14M], 2.48. For LKASMRELGLLIFYLFIGVILFSS [F14Y], the protein stability index is 3.01. To LKASMRELGLLIFNLFIGVILFSS [F14N] belongs 2.85; to LKASMRELGLLIFSLFIGVILFSS [F14S], 3.66; to LKASMRELGLLIFWLFIGVILFSS [F14W], 3.78. Consider LKASMRELGLLKFFLFIGVILFSS [I12K], for which the protein stability index came to 2.8. Then LKASMRELGLLTFFLFIGVILFSS [I12T], with 4.06. For LKASMRELGLLPFFLFIGVILFSS [I12P], the protein stability index came out at 1.95.

In the case of LKASMRELGLLWFFLFIGVILFSS [I12W], the protein stability index amounted to 3.17. Regarding LKASMRELGLLNFFLFIGVILFSS [I12N], the protein stability index was determined as 3.05. Then LKASMRELGLLMFFLFIGVILFSS [I12M], with 2.02. To LKASMRELGLLLFFLFIGVILFSS [I12L] belongs 2.86; to LKASMRELGLLRFFLFIGVILFSS [I12R], 4.06; to LKASMRELGLLVFFLFIGVILFSS [I12V], 1.35.

As for LKASMRELGLLYFFLFIGVILFSS [I12Y], the protein stability index amounted to 3.01. To LKASMRELGLLSFFLFIGVILFSS [I12S] belongs 1.31; to LKASMRELGLLQFFLFIGVILFSS [I12Q], 2.17; to LKASMRELGLLHFFLFIGVILFSS [I12H], 3.35. Turning to LKASMRELGLLIFFLFMGVILFSS [I17M], the protein stability index worked out at 3.35. Take LKASMRELGLLIFFLFPGVILFSS [I17P]: the protein stability index is 2.77. To LKASMRELGLLIFFLFWGVILFSS [I17W] belongs 3.85; to LKASMRELGLLIFFLFAGVILFSS [I17A], 2.83; to LKASMRELGLLIFFLFYGVILFSS [I17Y], 2.24.

In the case of LKASMRELGLLIFFLFNGVILFSS [I17N], the protein stability index was found to be 4.03. To LKASMRELGLLIFFLFHGVILFSS [I17H] belongs 2.85; to LKASMRELGLLIFFLFDGVILFSS [I17D], 2.29. Turning to LKASMRELGLLIFFLFGGVILFSS [I17G], the protein stability index worked out at 2.88. Then LKASMRELGLLIFFLFQGVILFSS [I17Q], with 2.82. Consider LKASMRELGLLIFFLFVGVILFSS [I17V], for which the protein stability index was determined as 2.74. On to LKASMRELGLLIFFLFTGVILFSS [I17T], for which the protein stability index stood at 2.48.

In the case of LKASMRELGLLIFFLFCGVILFSS [I17C], the protein stability index was determined as 2.56. To LKASMRELGLLIFFLFFGVILFSS [I17F] belongs 2.79; to LKASMRELGLLIFFLFSGVILFSS [I17S], 2.3; to LKASMRELGLLIFFLFKGVILFSS [I17K], 2.83.

Regarding LKASMRELGLLIFFLFLGVILFSS [I17L], the protein stability index came out at 1.95. Then LKASMRELGLLIFFLFRGVILFSS [I17R], with 2.71; and LKASMRELGLLIFFLFEGVILFSS [I17E], with 1.91; and LKASMRELGLLIFFLFIGVVLFSS [I20V], with 3.45. To LKASMRELGLLIFFLFIGVELFSS [I20E] belongs 2.38; to LKASMRELGLLIFFLFIGVQLFSS [I20Q], 2.9. Then LKASMRELGLLIFFLFIGVLLFSS [I20L], with 1.96; and LKASMRELGLLIFFLFIGVFLFSS [I20F], with 2.32; and LKASMRELGLLIFFLFIGVSLFSS [I20S], with 2.1. For the variant LKASMRELGLLIFFLFIGVCLFSS [I20C], the protein stability index amounted to 2.75. Turning to LKASMRELGLLIFFLFIGVWLFSS [I20W], the protein stability index stood at 2.02.

For the variant LKASMRELGLLIFFLFIGVYLFSS [I20Y], the protein stability index came to 2.65. To LKASMRELGLLIFFLFIGVMLFSS [I20M] belongs 3.52; to LKASMRELGLLIFFLFIGVKLFSS [I20K], 3.18; to LKASMRELGLLIFFLFIGVALFSS [I20A], 3.3. LKASMRELGLLIFFLFIGVTLFSS [I20T]: the protein stability index was 2.4.

Consider LKASMRELGLLIFFLFIGVDLFSS [I20D], for which the protein stability index was 3.22.

Turning to LKASMRELGLLIFFLFIGVILFHS [S23H], the protein stability index amounted to 2.15. For LKASMRELGLLIFFLFIGVILFGS [S23G], the protein stability index is 2.03. For LKASMRELGLLIFFLFIGVILFCS [S23C], the protein stability index turned out to be 1.67. To LKASMRELGLLIFFLFIGVILFFS [S23F] belongs 2.15. On to LKASMRELGLLIFFLFIGVILFKS [S23K], for which the protein stability index was found to be 3.15. To LKASMRELGLLIFFLFIGVILFAS [S23A] belongs 2.19. To LKASMRELGLLIFFLFIGVILFIS [S23I] belongs 1.85; to LKASMRELGLLIFFLFIGVILFDS [S23D], 2.75. As for LKASMRELGLLIFFLPIGVILFSS [F16P], the protein stability index is 2.96. Take LKASMRELGLLIFFLHIGVILFSS [F16H]: the protein stability index was 3.79. To LKASMRELGLLIFFLWIGVILFSS [F16W] belongs 2.38; to LKASMRELGLLIFFLAIGVILFSS [F16A], 2.14; to LKASMRELGLLIFFLGIGVILFSS [F16G], 3.06. Turning to LKASMRELGLLIFFLTIGVILFSS [F16T], the protein stability index came out at 2.77.
